Laboratory results published in the supplement of paper PMC9112550, “Optimization of the antimicrobial peptide Bac7 by deep mutational scanning” (BMC Biology, 2022).

What follows are sequences tested on Escherichia coli TOP10 (assay: shrunken log2 fold change of peptide-encoding DNA abundance (4.5 h post-induction vs induction); higher = less antimicrobial activity (less host growth inhibition)). Settings: time post-induction: 4.5 h; library: site-saturation at positions 5, 18, 19, 20.
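Further: peptides expressed intracellularly from a pBAD plasmid library in pooled LB shake-flask culture, induced with 0.3% L-arabinose, DNA abundance read by NGS, three biological replicates, DESeq2 with apeglm shrinkage.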

First: RRIRHRPPRLPRPRPRPGFVPRP
Second: RRIRKRPPRLPRPRPRPPFIPRP
The “shrunken log2 fold change” value of the first is higher: 0.607 for the first, -0.00551 for the second.

RRIRLRPPRLPRPRPRPLCAPRP and RRIRMRPPRLPRPRPRPCISPRP are within 0.2 log units of each other in “shrunken log2 fold change” value: 0.11 for the first, 0.00253 for the second.

First: RRIRVRPPRLPRPRPRPQCKPRP
Second: RRIRCRPPRLPRPRPRPSSRPRP
The “shrunken log2 fold change” value of the first is higher: -0.129 for the first, -0.459 for the second.

First: RRIRKRPPRLPRPRPRPRFFPRP
Second: RRIRDRPPRLPRPRPRPWIKPRP
The “shrunken log2 fold change” value of the first is higher: 0.282 for the first, 0.00902 for the second.

RRIRCRPPRLPRPRPRPIFFPRP and RRIRCRPPRLPRPRPRPKLVPRP are within 0.2 log units of each other in “shrunken log2 fold change” value: -0.0793 for the first, -0.152 for the second.

Compared with RRIRSRPPRLPRPRPRPMPPPRP, RRIRGRPPRLPRPRPRPVTPPRP is higher in “shrunken log2 fold change” value: 0.435 for the first, 1.24 for the second.

Compared with RRIRKRPPRLPRPRPRPITSPRP, RRIRQRPPRLPRPRPRPFKTPRP is lower in “shrunken log2 fold change” value: 0.22 for the first, -0.0381 for the second.

First: RRIRQRPPRLPRPRPRPIQKPRP
Second: RRIRWRPPRLPRPRPRPETGPRP
The “shrunken log2 fold change” value of the first is lower: -0.0187 for the first, 0.396 for the second.

First: RRIRIRPPRLPRPRPRPRLPPRP
Second: RRIRQRPPRLPRPRPRPQNTPRP
The “shrunken log2 fold change” value of the first is higher: 0.161 for the first, -0.666 for the second.

Going from RRIRYRPPRLPRPRPRPIPFPRP to RRIRARPPRLPRPRPRPIISPRP, the “shrunken log2 fold change” value rises from -1.53 to -0.129.

Going from RRIRVRPPRLPRPRPRPCHEPRP to RRIRTRPPRLPRPRPRPALQPRP, the “shrunken log2 fold change” value rises from -0.378 to 0.278.

Going from RRIRIRPPRLPRPRPRPHKGPRP to RRIRWRPPRLPRPRPRPLPCPRP, the “shrunken log2 fold change” value rises from -0.145 to 0.118.

RRIRKRPPRLPRPRPRPMEKPRP and RRIRQRPPRLPRPRPRPGEVPRP are within 0.2 log units of each other in “shrunken log2 fold change” value: -0.0153 for the first, -0.102 for the second.

Compared with RRIRHRPPRLPRPRPRPNWVPRP, RRIRMRPPRLPRPRPRPVLWPRP is higher in “shrunken log2 fold change” value: -0.126 for the first, 0.847 for the second.

First: RRIRCRPPRLPRPRPRPEDFPRP
Second: RRIRCRPPRLPRPRPRPMEWPRP
The “shrunken log2 fold change” value of the first is lower: -0.198 for the first, 0.0244 for the second.

RRIRNRPPRLPRPRPRPTFQPRP and RRIRHRPPRLPRPRPRPSYCPRP are within 0.2 log units of each other in “shrunken log2 fold change” value: 0.0675 for the first, 0.00287 for the second.

RRIRMRPPRLPRPRPRPENAPRP and RRIRVRPPRLPRPRPRPRWTPRP are within 0.2 log units of each other in “shrunken log2 fold change” value: 0.0504 for the first, -0.142 for the second.

Compared with RRIRTRPPRLPRPRPRPNKFPRP, RRIRIRPPRLPRPRPRPGQDPRP is higher in “shrunken log2 fold change” value: -0.37 for the first, -0.165 for the second.

RRIRVRPPRLPRPRPRPRIGPRP and RRIRERPPRLPRPRPRPMIPPRP are within 0.2 log units of each other in “shrunken log2 fold change” value: 0.131 for the first, -0.0272 for the second.

First: RRIRARPPRLPRPRPRPFNLPRP
Second: RRIRMRPPRLPRPRPRPADCPRP
The “shrunken log2 fold change” value of the first is lower: -0.173 for the first, 0.918 for the second.

RRIRGRPPRLPRPRPRPQFEPRP and RRIRTRPPRLPRPRPRPGLLPRP are within 0.2 log units of each other in “shrunken log2 fold change” value: 0.156 for the first, 0.0639 for the second.

Going from RRIRMRPPRLPRPRPRPARGPRP to RRIRVRPPRLPRPRPRPTSIPRP, the “shrunken log2 fold change” value falls from 1.1 to -0.201.

Going from RRIRERPPRLPRPRPRPYWHPRP to RRIRQRPPRLPRPRPRPFWDPRP, the “shrunken log2 fold change” value rises from -0.168 to 0.213.

Going from RRIRIRPPRLPRPRPRPVTSPRP to RRIRYRPPRLPRPRPRPFYFPRP, the “shrunken log2 fold change” value falls from -0.0328 to -0.961.

First: RRIRRRPPRLPRPRPRPRASPRP
Second: RRIRDRPPRLPRPRPRPFSSPRP
The “shrunken log2 fold change” value of the first is higher: 0.527 for the first, -0.0177 for the second.

First: RRIRHRPPRLPRPRPRPHTSPRP
Second: RRIRGRPPRLPRPRPRPHVYPRP
The “shrunken log2 fold change” value of the first is lower: -0.0988 for the first, 0.469 for the second.

RRIRMRPPRLPRPRPRPKAWPRP and RRIRYRPPRLPRPRPRPMKTPRP are within 0.2 log units of each other in “shrunken log2 fold change” value: 0.0535 for the first, -0.0156 for the second.

Compared with RRIRQRPPRLPRPRPRPVLEPRP, RRIRPRPPRLPRPRPRPHHQPRP is lower in “shrunken log2 fold change” value: 0.198 for the first, -0.399 for the second.

RRIRDRPPRLPRPRPRPRPWPRP and RRIRERPPRLPRPRPRPNFAPRP are within 0.2 log units of each other in “shrunken log2 fold change” value: 0.25 for the first, 0.387 for the second.

First: RRIRDRPPRLPRPRPRPWRHPRP
Second: RRIRLRPPRLPRPRPRPFSRPRP
The “shrunken log2 fold change” value of the first is higher: 0.0719 for the first, -0.199 for the second.

Going from RRIRQRPPRLPRPRPRPQMPPRP to RRIRTRPPRLPRPRPRPERFPRP, the “shrunken log2 fold change” value rises from -1.26 to 0.0107.

First: RRIRLRPPRLPRPRPRPMGFPRP
Second: RRIRMRPPRLPRPRPRPECPPRP
The “shrunken log2 fold change” value of the first is lower: -0.159 for the first, 0.43 for the second.

First: RRIRRRPPRLPRPRPRPPVYPRP
Second: RRIRIRPPRLPRPRPRPWQHPRP
The “shrunken log2 fold change” value of the first is higher: 0.32 for the first, 0.0851 for the second.

RRIRRRPPRLPRPRPRPCVQPRP and RRIRTRPPRLPRPRPRPDWQPRP are within 0.2 log units of each other in “shrunken log2 fold change” value: 0.171 for the first, -0.0206 for the second.

Going from RRIRERPPRLPRPRPRPEEGPRP to RRIRSRPPRLPRPRPRPNHGPRP, the “shrunken log2 fold change” value falls from -0.007 to -0.4.

RRIRERPPRLPRPRPRPFIYPRP and RRIRTRPPRLPRPRPRPIEAPRP are within 0.2 log units of each other in “shrunken log2 fold change” value: -0.0998 for the first, -0.199 for the second.

RRIRTRPPRLPRPRPRPKQEPRP and RRIRPRPPRLPRPRPRPVSPPRP are within 0.2 log units of each other in “shrunken log2 fold change” value: -0.0429 for the first, 0.0647 for the second.

RRIRMRPPRLPRPRPRPGCYPRP was tested, and the “shrunken log2 fold change” value was 0.135.
